Changes are numbered by the printed parent chain. Names and notes keep the numbering of the source.

Results on two molecules are retold here after patent publication US20180194839A1 (Novartis, published 2018).

Test [1] addresses T1, recombinant human IL-17A/F heterodimer (human, UniProt Q16552 24-155; Q96PD4 31-163, limits assumed).
T1 construct: heterodimer of an IL-17A subunit and an IL-17F subunit; also called huIL-17A/F; rhuIL-17A/F
T1 sequence (looked up) 1: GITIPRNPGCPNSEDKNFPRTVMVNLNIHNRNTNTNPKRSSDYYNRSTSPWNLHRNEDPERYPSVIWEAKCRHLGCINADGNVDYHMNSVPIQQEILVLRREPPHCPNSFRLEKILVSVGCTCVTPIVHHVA
T1 sequence (looked up) 2: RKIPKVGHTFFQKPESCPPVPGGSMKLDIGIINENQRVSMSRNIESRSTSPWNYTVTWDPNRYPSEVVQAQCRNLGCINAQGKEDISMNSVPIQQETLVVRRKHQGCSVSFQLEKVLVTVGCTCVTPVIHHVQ
The test is described as follows: competition ELISA: huIL-17A/F pre-incubated with antibody, binding to coated huIL-17RA. (In general: An ELISA detects its analyte on a solid surface through an enzyme-linked reagent.)

The target of test [2] is T2, recombinant mouse IL-17F (R&D Systems Cat#2057-IL/CF) (mouse, UniProt Q7TNI7 29-161).
T2 construct: also called mIL-17F
T2 sequence (looked up): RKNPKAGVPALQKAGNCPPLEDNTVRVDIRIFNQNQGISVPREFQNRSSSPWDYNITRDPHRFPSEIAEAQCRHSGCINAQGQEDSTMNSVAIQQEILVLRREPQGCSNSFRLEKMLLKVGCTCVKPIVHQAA
The test is described as follows: ELISA, coated cytokine, Ab 10 µg/ml.

The target of test [3] is T3, recombinant mouse IL-23 (R&D Systems Cat#1887-ML) (mouse, UniProt Q9EQ14 22-196; P43432 23-335).
T3 construct: also called mIL-23
T3 sequence (looked up) 1: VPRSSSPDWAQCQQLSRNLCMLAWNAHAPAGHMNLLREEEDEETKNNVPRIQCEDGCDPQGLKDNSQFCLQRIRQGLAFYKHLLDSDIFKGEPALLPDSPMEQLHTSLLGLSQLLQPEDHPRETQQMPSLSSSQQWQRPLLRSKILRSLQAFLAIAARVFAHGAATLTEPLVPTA
T3 sequence (looked up) 2: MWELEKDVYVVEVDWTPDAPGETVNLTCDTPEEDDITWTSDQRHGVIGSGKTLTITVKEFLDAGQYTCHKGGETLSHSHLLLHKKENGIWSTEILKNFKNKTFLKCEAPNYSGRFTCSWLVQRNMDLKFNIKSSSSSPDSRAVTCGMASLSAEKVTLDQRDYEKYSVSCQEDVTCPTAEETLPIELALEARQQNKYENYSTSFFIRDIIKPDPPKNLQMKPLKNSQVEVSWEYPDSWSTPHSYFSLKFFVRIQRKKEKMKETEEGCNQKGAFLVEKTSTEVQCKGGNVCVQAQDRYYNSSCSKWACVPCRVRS
The test can be described thus: ELISA, coated cytokine, Ab 10 µg/ml.

The target in test [4] is T4, recombinant mouse IL-1β (R&D Systems Cat#401-ML) (mouse, UniProt P10749 118-269).
T4 construct: also called mIL-1β
T4 sequence (looked up): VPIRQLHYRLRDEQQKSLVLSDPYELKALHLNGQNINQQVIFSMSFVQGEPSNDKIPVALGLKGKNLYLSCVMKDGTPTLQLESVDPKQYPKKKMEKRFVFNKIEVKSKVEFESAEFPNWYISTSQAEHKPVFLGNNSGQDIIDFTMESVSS
The test can be described thus: ELISA, coated cytokine, Ab 10 µg/ml.

Test [5] deals with T5, recombinant mouse IL-17A/F (R&D Systems Cat#5390-IL) (mouse, UniProt Q62386 26-158; Q7TNI7 29-161, limits assumed).
T5 construct: bought heterodimer; also called mIL-17A/F; rmIL-17A/F
T5 sequence (looked up) 1: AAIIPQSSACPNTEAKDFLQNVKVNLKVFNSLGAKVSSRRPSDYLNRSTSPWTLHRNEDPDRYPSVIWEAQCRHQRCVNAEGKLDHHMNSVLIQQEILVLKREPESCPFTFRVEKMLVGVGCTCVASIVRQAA
T5 sequence (looked up) 2: T2 sequence (looked up)
The test is described as follows: ELISA, coated cytokine, Ab 10 µg/ml.

Test [6] has as its target T6, recombinant mouse IL-12 (R&D Systems Cat#419-ML-010/CF) (mouse, UniProt P43431 23-215; P43432 23-335).
T6 construct: coated at 0.5 µg/ml; also called mIL-12
T6 sequence (looked up) 1: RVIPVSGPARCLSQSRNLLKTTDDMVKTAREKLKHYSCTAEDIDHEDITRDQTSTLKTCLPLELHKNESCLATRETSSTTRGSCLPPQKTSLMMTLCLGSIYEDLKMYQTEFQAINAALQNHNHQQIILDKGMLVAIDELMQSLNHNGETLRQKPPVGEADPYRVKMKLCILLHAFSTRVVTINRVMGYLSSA
T6 sequence (looked up) 2: T3 sequence (looked up) 2
The test can be described thus: ELISA, coated cytokine, Ab 10 µg/ml.

In test [7] the target is T7, recombinant mouse IL-6 (R&D Systems Cat#406-ML-010/CF) (mouse, UniProt P08505 25-211).
T7 construct: coated at 0.5 µg/ml; also called mIL-6
T7 sequence (looked up): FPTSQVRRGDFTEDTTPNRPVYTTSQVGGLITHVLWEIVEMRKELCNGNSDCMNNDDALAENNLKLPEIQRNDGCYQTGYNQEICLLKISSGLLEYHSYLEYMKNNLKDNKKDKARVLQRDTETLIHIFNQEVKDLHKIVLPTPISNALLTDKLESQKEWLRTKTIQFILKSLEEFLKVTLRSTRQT
The test is described as follows: ELISA, coated cytokine, Ab 10 µg/ml.

Test [8] has as its target T8, recombinant mouse IL-17A (SEQ ID NO: 83) (mouse, UniProt Q62386 26-158).
T8 construct: also called mIL-17A; rmIL-17A
T8 sequence: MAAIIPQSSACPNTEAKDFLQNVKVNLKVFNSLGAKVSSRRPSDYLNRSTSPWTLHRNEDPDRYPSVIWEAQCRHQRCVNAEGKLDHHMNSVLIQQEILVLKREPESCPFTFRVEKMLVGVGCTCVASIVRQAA
The test is described as follows: ELISA, coated cytokine, Ab 10 µg/ml.

Test [9] has as its target T9, recombinant mouse IL-2 (R&D Systems 402-ML-020/CF) (mouse, UniProt P04351 21-169).
T9 construct: also called mIL-2
T9 sequence (looked up): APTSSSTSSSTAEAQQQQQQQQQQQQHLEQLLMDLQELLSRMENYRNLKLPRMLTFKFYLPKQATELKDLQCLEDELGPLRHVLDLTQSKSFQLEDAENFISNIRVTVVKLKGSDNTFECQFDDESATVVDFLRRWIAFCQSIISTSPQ
The test can be described thus: ELISA, coated cytokine, Ab 10 µg/ml.

B1: XAB4 (antibody, human IgG1, kappa, V domains shown)
VH: EVQLVESGGDLVQPGGSLRLSCAASGFTFSSYWMSWVRQAPGKGLEWVANIKQDGSEKYYVDSVKGRFTISRDNAKNSLYLQMNSLRAEDTAVYYCARDRGSLYYWGQGTLVTVSS
VL: AIQLTQSPSSLSASVGDRVTITCRPSQGINWELAWYQQKPGKAPKLLIYDASSLEQGVPSRFSGSGSGTDFTLTISSLQPEDFATYYCQQFNSYPLTFGGGTKVEIKR
notes: also called MB435 N56Q
The term IC50 denotes the concentration that inhibits the measured activity by half. Take B1: the IC50 in test [1] is 154 nM. Besides, the O.D. in [2] amounted to 0.034 O.D; in [3], 0.058 O.D; in test [4], 0.022 O.D; in [5] it was 3.34 O.D; in test [6], 0.035 O.D; in test [7], 0.031 O.D. Besides, the figures for the O.D. in [8] and in test [9] were 3.29 O.D and 0.024 O.D, respectively.

B2: XAB1 (antibody, human IgG1, kappa, V domains shown)
VH: B1 VH
VL: B1 VL with N30I, W31S, E32A, Q56N
notes: human IgG1/kappa monoclonal antibody; also called parental XAB1; XAB1 IgG
Regarding B2, the half-inhibitory concentration (IC50) in test [1] was determined as 301 nM. For the same molecule, the O.D. was -0.058 O.D in test [2]; 0.009 O.D in test [3]; 0.007 O.D in test [4]; 3.17 O.D in test [5]; -0.005 O.D in test [6]; 0.038 O.D in test [7]. Also, the O.D. worked out at 2.97 O.D in test [8] and 0.022 O.D in [9].
